Columns and labels:
RAJI cells = experiment: JNG assay, co-culture with RAJI cells; format: cell-based; details: JNG cells expressing construct, co-culture with Raji
Method in brief: (§1)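 Jurkat NFAT-GFP (JNG) cells stably transduced with SARs by lentivirus, with drug selection where the construct carried a resistance gene, then co-cultured with target cells at E:T ~1:2 for ~4–18 h. % GFP-positive cells measured by FACS against parental JNG; +/- to 5+ correspond to ~5–50% GFP-positive.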

DAUDI = experiment: JNG assay, co-culture with DAUDI cells; format: cell-based
Method: Cellular supernatant is collected and assayed for the induction of cytokines (e.g., IL2).
JNG (Jurkat cells expressing EGFP under an NFAT promoter) were infected with lentiviral vectors encoding different single chain and multi-chain SARs by spinfection in the presence of 8 µg/ml of Polybrene® (Sigma, Catalog no. H9268). The Jurkat-NFAT-GFP cells are engineered in such a way that the IL-2 promoter, which carries NFAT binding sites, is cloned upstream of the GFP gene. These cells have been used to study signaling via TCR and CAR. The different SARs were stably expressed in Jurkat NFAT-GFP cells by lentiviral mediated gene transfer, followed by selection with puromycin or blasticidin. No drug selection was used in case the construct lacked an antibiotic resistance gene. The SAR-expressing Jurkat-NFAT-GFP cells were cocultured with the target cells at E:T ratio of approximately 1:2 for approximately 4 hours to 18 hours. When the interaction between SIRs and their target antigen results in activation of the NFAT pathway, GFP expression is induced. […] GFP expression was monitored by FACS analysis. The Jurkat-NFAT-GFP (parental) cells were used as control. The structure of different constructs can be determined based on their names. […] The sequence of the other constructs in the table can be similarly determined from their names and by referring to the different Tables of this disclosure that provide the names and SEQ ID NO of the different modules. Alternatively, the composition and modular architecture of the different SAR constructs can be determined from their sequences by bioinformatics tools, including using nucleic acid and amino acids homology searches. A SAR is considered positive in the assay in case the SAR expressing Jurkat-NFAT-GFP cells show greater % GFP positive cells when cultured with the target cell line as compared to parental Jurkat-NFAT-GFP cells. […] In general, the number +/-, +, 2+, 3+, 4+, 5+ refer to approximately 5%, 10%, 20%, 30%, 40% and 50% GFP positive cells. […]

Nalm6 cells = experiment: JNG assay, co-culture with Nalm6 cells; format: cell-based; details: co-culture with Nalm6
Method in brief: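 Read-out: % GFP-positive cells by flow cytometry after ~4 to 18 h coculture of SAR-transduced JNG cells with targets (E:T about 1:2). Scores reflect GFP induction above parental JNG controls: +/- ≈5%, + ≈10%, up to 5+ ≈50%.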

L363 cells = experiment: JNG assay, co-culture with L363 cells; format: cell-based; details: co-culture with L363
Method in brief: as §1

[1] = JNG NFAT-GFP background GFP induction (tonic signaling); details: JNG cells expressing construct, without target
RS;411 = experiment: JNG assay, co-culture with RS;411 cells; format: cell-based; details: co-culture with RS411
Method in brief: as §1

RAJI-CD19-KO cells = experiment: JNG assay, co-culture with RAJI-CD19-KO cells; format: cell-based; details: co-culture with Raji-CD19-KO
Method in brief: as §1

Molecule | NFAT-GFP ASSAY: Raji (RAJI cells) | NFAT-GFP ASSAY: Daudi (DAUDI) | NFAT-GFP ASSAY: Nalm6 (Nalm6 cells) | NFAT-GFP ASSAY: L363 (L363 cells) | NFAT-GFP ASSAY: Self Activation (SA) [1] | NFAT-GFP ASSAY: RS411 (RS;411) | NFAT-GFP ASSAY: Raji-CD19-KO (RAJI-CD19-KO cells)
22004 (protein) MALPVTALLLPLALLLHAARPLEGKPIPNPLLGLDSTGSGEDLKNVFPPEVAVFEPSKAEIAHTQKATLVCLATGFYPDHVELSWWVNGKEVHSGVCTDPQPLKEQPALNDSRYCLSSRLRVSATFWQNPRNHFRCQVQFYGLSENDEWTQDRAKPVTQIVSAEAWGRADCGITSASYHQGVLSATILYEILLGKATLYAVLVSALVLMAMVKRKDSRGRAKRSGSGATNFSLLKQAGDVEENPGPTSTMALPVTALLLPLALLLHAARPQLQLQESGPGLVKPSETLSLTCTVSGDSISSGDYYWGWIRQPPGKGLEWIGHIYYSGVTYYNPSLKSRVTISVDTSRNQFSLKLSSVTAADTAVYYCTREDSSNWRSRGQGTLVTVSSLESGGGGSFEQVQLVESGGGLVQPGGSLRLSCAASGFTFTNHAMSWVRQAPGKGLELVSSISGNGRTTYYADSVKGRFTISRDISKNTLDLQMNSLRAEDTAVYYCAKDGGETLVDSRGQGTLVTVSSTREQKLISEEDGSGIQNPDPAVYQLRDSKSSDKSVCLFTDFDSQTNVSQSKDSDVYITDKCVLDMRSMDFKSNSAVAWSNKSDFACANAFNNSIIPEDTFFPSSDVPCDVKLVEKSFETDTNLNFQNLSVIGFRILLLKVAGFNLLMTLRLWSSRAKRSGSGVKQTLNFDLLKLAGDVESNPGPSRGHMTEYKPTVRLATRDDVPRAVRTLAAAFADYPATRHTVDPDRHIERVTELQELFLTRVGLDIGKVWVADDGAAVAVWTTPESVEAGAVFAEIGPRMAELSGSRLAAQQQMEGLLAPHRPKEPAWFLATVGVSPDHQGKGLGSAVVLPGVEAAERAGVPAFLETSAPRNLPFYERLGFTVTADVEVPEGPRTWCMTRKPGA | + (refer to approximately 5%, 10%, 20%, 30%, 40% and 50% GFP positive cells) | +/- (refer to approximately 5%, 10%, 20%, 30%, 40% and 50% GFP positive cells) | +/- (refer to approximately 5%, 10%, 20%, 30%, 40% and 50% GFP positive cells) | + (refer to approximately 5%, 10%, 20%, 30%, 40% and 50% GFP positive cells) |  |  | 
21997 (protein) MALPVTALLLPLALLLHAARPQLQLQESGPGLVKPSETLALTCNVSGGSISSSSYYWGWIRQPPGKRLEWIGSIYYSGSTYFNPSLKSRVTISVDTSKNQFSLKLSSVTAADTAVYYCAGGDYYGPVGQWPSDYRGQGTLVTVSSLEDLKNVFPPEVAVFEPSEAEISHTQKATLVCLATGFYPDHVELSWWVNGKEVHSGVCTDPQPLKEQPALNDSRYCLSSRLRVSATFWQNPRNHFRCQVQFYGLSENDEWTQDRAKPVTQIVSAEAWGRADCGFTSESYQQGVLSATILYEILLGKATLYAVLVSALVLMAMVKRKDSRGRAKRSGSGATNFSLLKQAGDVEENPGPTSMDWIWRILFLVGAATGAHSFEQVQLVESGGGLVQPGGSLRLSCAASGFTFTNHAMSWVRQAPGKGLELVSSISGNGRTTYYADSVKGRFTISRDISKNTLDLQMNSLRAEDTAVYYCAKDGGETLVDSRGQGTLVTVSSTRIQNPDPAVYQLRDSKSSDKSVCLFTDFDSQTNVSQSKDSDVYITDKCVLDMRSMDFKSNSAVAWSNKSDFACANAFNNSIIPEDTFFPSPESSCDVKLVEKSFETDTNLNFQNLSVIGFRILLLKVAGFNLLMTLRLWSSRAKRSGSGVKQTLNFDLLKLAGDVESNPGPSRGHMTEYKPTVRLATRDDVPRAVRTLAAAFADYPATRHTVDPDRHIERVTELQELFLTRVGLDIGKVWVADDGAAVAVWTTPESVEAGAVFAEIGPRMAELSGSRLAAQQQMEGLLAPHRPKEPAWFLATVGVSPDHQGKGLGSAVVLPGVEAAERAGVPAFLETSAPRNLPFYERLGFTVTADVEVPEGPRTWCMTRKPGA |  |  |  | + (refer to approximately 5%, 10%, 20%, 30%, 40% and 50% GFP positive cells) | Self Activation |  | 
22003 (protein) MALPVTALLLPLALLLHAARPLEGKPIPNPLLGLDSTGSGEDLKNVFPPEVAVFEPSKAEIAHTQKATLVCLATGFYPDHVELSWWVNGKEVHSGVCTDPQPLKEQPALNDSRYCLSSRLRVSATFWQNPRNHFRCQVQFYGLSENDEWTQDRAKPVTQIVSAEAWGRADCGITSASYHQGVLSATILYEILLGKATLYAVLVSALVLMAMVKRKDSRGRAKRSGSGATNFSLLKQAGDVEENPGPTSTMALPVTALLLPLALLLHAARPQLQLQESGPGLVKPSETLSLTCTVSGDSISSGDYYWGWIRQPPGKGLEWIGHIYYSGVTYYNPSLKSRVTISVDTSRNQFSLKLSSVTAADTAVYYCTREDSSNWRSRGQGTLVTVSSLESGGGGSFEEVQLLESGGGLVQPGGSLRLSCAASGFTFSSYAMSWVRQAPGKGLEWVSSISGSGDYIYYADSVKGRFTISRDISKNTLYLQMNSLRAEDTAVYYCAKEGTGANSSLADYRGQGTLVTVSSTREQKLISEEDGSGIQNPDPAVYQLRDSKSSDKSVCLFTDFDSQTNVSQSKDSDVYITDKCVLDMRSMDFKSNSAVAWSNKSDFACANAFNNSIIPEDTFFPSSDVPCDVKLVEKSFETDTNLNFQNLSVIGFRILLLKVAGFNLLMTLRLWSSRAKRSGSGVKQTLNFDLLKLAGDVESNPGPSRGHMTEYKPTVRLATRDDVPRAVRTLAAAFADYPATRHTVDPDRHIERVTELQELFLTRVGLDIGKVWVADDGAAVAVWTTPESVEAGAVFAEIGPRMAELSGSRLAAQQQMEGLLAPHRPKEPAWFLATVGVSPDHQGKGLGSAVVLPGVEAAERAGVPAFLETSAPRNLPFYERLGFTVTADVEVPEGPRTWCMTRKPGA | + (refer to approximately 5%, 10%, 20%, 30%, 40% and 50% GFP positive cells) | +/- (refer to approximately 5%, 10%, 20%, 30%, 40% and 50% GFP positive cells) | +/- (refer to approximately 5%, 10%, 20%, 30%, 40% and 50% GFP positive cells) | + (refer to approximately 5%, 10%, 20%, 30%, 40% and 50% GFP positive cells) |  |  | 
22118 (protein) MALPVTALLLPLALLLHAARPEVQLVESGGGLVQPGGSLRLSCTFSGGTFSSYTMGWFRQAPGKEREFVAEVRWGGVTTYSNSLKDRFSISEDSVKNAVYLQMNSLKPEDTAVYYCAAVRQMYMTVVPDYWGQGTLVTVSSSGGGGSDIQMTQSPSSLSASVGDRVTITCKASDHINNWLAWYQQKPGKAPKLLIYGATTLETGVPSRFSGSGSGTDFTLTISSLQPEDFATYYCQQSWNTPWTFGQGTKVEIKRLEDLKNVFPPEVAVFEPSEAEISHTQKATLVCLATGFYPDHVELSWWVNGKEVHSGVCTDPQPLKEQPALNDSRYCLSSRLRVSATFWQNPRNHFRCQVQFYGLSENDEWTQDRAKPVTQIVSAEAWGRADCGFTSESYQQGVLSATILYEILLGKATLYAVLVSALVLMAMVKRKDSRGRAKRSGSGATNFSLLKQAGDVEENPGPTSMDWIWRILFLVGAATGAHSFEVQLVESGGGLVQPGGSLRLSCAASGYAFSSYWVNWVRQAPGKGLEWVAQIYPGDGDTNYNGKFKGRFTISRDNSKNTLYLQMNSLRAEDTAVYYCARSITTVVGCAMDYWGQGTLVTVSSTRIQNPDPAVYQLRDSKSSDKSVCLFTDFDSQTNVSQSKDSDVYITDKCVLDMRSMDFKSNSAVAWSNKSDFACANAFNNSIIPEDTFFPSPESSCDVKLVEKSFETDTNLNFQNLSVIGFRILLLKVAGFNLLMTLRLWSSRAKRSGSGVKQTLNFDLLKLAGDVESNPGPSRGHMTEYKPTVRLATRDDVPRAVRTLAAAFADYPATRHTVDPDRHIERVTELQELFLTRVGLDIGKVWVADDGAAVAVWTTPESVEAGAVFAEIGPRMAELSGSRLAAQQQMEGLLAPHRPKEPAWFLATVGVSPDHQGKGLGSAVVLPGVEAAERAGVPAFLETSAPRNLPFYERLGFTVTADVEVPEGPRTWCMTRKPGA | 3+ (refer to approximately 5%, 10%, 20%, 30%, 40% and 50% GFP positive cells) | 3+ (refer to approximately 5%, 10%, 20%, 30%, 40% and 50% GFP positive cells) | 3+ (refer to approximately 5%, 10%, 20%, 30%, 40% and 50% GFP positive cells) |  |  | 3+ (refer to approximately 5%, 10%, 20%, 30%, 40% and 50% GFP positive cells) | 2+ (refer to approximately 5%, 10%, 20%, 30%, 40% and 50% GFP positive cells)
